What all share (test): pull-down; bacterially made, purified His-Brachyury derivatives incubated with GST-Mixl1 derivatives or GST alone on glutathione beads in ELB150 buffer, 4°C, 3 h; washed in ELB300 (0.3 M KCl); Western blot with anti-T N19
Common to all, as to conditions: both partners purified
A general note: In western blotting, separated proteins are transferred to a membrane and probed.

Assay [1] deals with T1, His-hBrachyury (human, UniProt O15178 1-435).
T1 construct: Brachyury (T), human; in pET15b by Gateway cloning; also called hT; pET15b-hBrachyury; source: E. coli BL21 RIPL(DE3), purified (Talon resin)
T1 sequence (looked up): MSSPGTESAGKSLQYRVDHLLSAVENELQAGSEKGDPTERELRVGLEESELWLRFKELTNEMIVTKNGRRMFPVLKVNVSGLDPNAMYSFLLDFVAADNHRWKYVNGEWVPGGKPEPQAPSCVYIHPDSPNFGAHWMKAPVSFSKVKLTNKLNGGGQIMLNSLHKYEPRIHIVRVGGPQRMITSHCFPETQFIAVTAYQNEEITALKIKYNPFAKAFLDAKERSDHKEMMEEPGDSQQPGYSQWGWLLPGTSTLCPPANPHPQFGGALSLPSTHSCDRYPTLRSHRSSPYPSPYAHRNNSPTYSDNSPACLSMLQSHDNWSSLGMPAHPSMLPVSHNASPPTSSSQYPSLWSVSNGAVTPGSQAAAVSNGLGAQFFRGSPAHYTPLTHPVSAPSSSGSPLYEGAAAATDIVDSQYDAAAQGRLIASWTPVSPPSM

The target in assay [2] is T2, His-mBrachyury (mouse, UniProt P20293 1-436).
T2 construct: Brachyury (T), mouse; in pET15b by Gateway cloning; also called mT; recombinant His-tagged T protein; source: E. coli BL21 RIPL(DE3), purified (Talon resin)
T2 sequence (looked up): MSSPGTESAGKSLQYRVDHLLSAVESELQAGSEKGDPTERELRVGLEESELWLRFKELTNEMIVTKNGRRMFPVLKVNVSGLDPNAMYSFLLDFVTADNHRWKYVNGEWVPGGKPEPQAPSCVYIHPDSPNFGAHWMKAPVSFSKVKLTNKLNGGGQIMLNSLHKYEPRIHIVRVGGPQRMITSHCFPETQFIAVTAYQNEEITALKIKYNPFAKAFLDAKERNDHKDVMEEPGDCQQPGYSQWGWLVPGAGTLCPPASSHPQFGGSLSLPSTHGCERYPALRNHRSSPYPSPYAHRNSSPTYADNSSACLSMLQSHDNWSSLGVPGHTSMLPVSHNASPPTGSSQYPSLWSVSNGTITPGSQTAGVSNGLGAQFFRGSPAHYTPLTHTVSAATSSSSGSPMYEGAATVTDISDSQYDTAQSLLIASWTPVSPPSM

In assay [3] the target is T3, His mT-box (mouse, UniProt P20293 1-230).
T3 construct: Brachyury (T), mouse, T-box domain aa 1-230; also called His-Brachyury T-box domain; T-box domain (aa 1–230) of Brachyury; source: E. coli BL21 RIPL(DE3), purified (Talon resin)
T3 sequence (looked up): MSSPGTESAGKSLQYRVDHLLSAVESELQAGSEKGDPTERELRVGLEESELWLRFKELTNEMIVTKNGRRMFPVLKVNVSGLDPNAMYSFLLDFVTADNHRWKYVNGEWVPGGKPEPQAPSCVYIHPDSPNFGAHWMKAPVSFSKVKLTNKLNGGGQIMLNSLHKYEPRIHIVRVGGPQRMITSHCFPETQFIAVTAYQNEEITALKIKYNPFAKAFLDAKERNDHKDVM

B1: GST-hMixl1 (natural protein)
chain: not shown
notes: MIXL1, the human ortholog of Mixl1; in pGEX2T by Gateway cloning; also called pGEX-hMixl1; source: E. coli BL21 RIPL(DE3), purified (glutathione agarose)
As for B1, the binding result in assay [1] is “binds”.

B2: GST-mMixl1 (bacterial) (natural protein)
chain: not shown
notes: Mixl1 homeodomain protein, mouse; in pGEX2T by Gateway cloning; also called recombinant GST mMixl1; pGEX-mMixl1; source: E. coli BL21 RIPL(DE3), purified (glutathione agarose)
For B2, in assay [2], the binding result is “binds”.

B3: GST mMixl1 HD (domain or fragment)
chain: not shown
notes: Made as one of the 'GST-Mixl1 derivatives' of the methods; source: E. coli BL21 RIPL(DE3), purified (glutathione agarose)
Regarding B3, in assay [3], the binding result is “binds”.

These data come from paper PMC3229578, “Brachyury and Related Tbx Proteins Interact with the Mixl1 Homeodomain Protein and Negatively Regulate Mixl1 Transcriptional Activity” (PLoS ONE, 2011).
